Assay results as given in patent publication US20240252635A1 (Genmab, published 2024).

Biological target: T1, human CD37 (human (Homo sapiens), UniProt P11049 1-281)
T1 construct: Endogenous on Daudi cells, Raji cells and human blood B cells; also called Leukocyte Antigen CD37; GP52-40
T1 sequence: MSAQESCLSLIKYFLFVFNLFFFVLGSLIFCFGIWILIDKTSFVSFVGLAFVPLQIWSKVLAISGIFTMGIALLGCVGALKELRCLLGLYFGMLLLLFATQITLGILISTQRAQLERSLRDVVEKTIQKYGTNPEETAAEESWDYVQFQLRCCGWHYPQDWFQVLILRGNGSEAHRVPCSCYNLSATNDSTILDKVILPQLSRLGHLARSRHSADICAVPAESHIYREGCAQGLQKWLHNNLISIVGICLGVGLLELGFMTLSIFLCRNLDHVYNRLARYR
Test: flow cytometry on HEK293 cells expressing wild type CD37 or alanine mutants, Alexa488 antibody at 3 µg/mL
Experimental: The wild type CD37 and alanine mutants were expressed individually in FreeStyle HEK293 cells according to the manufacturer's instructions (Thermo Scientific). One day post transfection the cells were harvested. […] Cells were incubated for 1 hour at room temperature. Subsequently, cells were washed twice by adding 150 μL FACS buffer and removing the supernatant after centrifugation. Cells were resuspended in 20 μL fresh FACS buffer and stored at 4° C. until analysis by flow cytometry using an iQue screener (IntelliCyt). The entire experiment was performed 2 times.

B1: bsIgG1-016-H5L2-LC90S-F405L-E430Gxb12-K409R-E430G (bispecific antibody)
heavy 1: not shown
light 1: DVVMTQSPSTLSASVGDRVTITCQASQNIDSNLAWYQQKPGKAPKFLIYYASNLPFGVPSRFKGSGSGTEFTLTISSLQPDDFATYYCQSADVGSTYVAAFGGGTKVEIKRTVAAPSVFIFPPSDEQLKSGTASVVCLLNNFYPREAKVQWKVDNALQSGNSQESVTEQDSKDSTYSLSSTLTLSKADYEKHKVYACEVTHQGLSSPVTKSFNRGEC
heavy 2: not shown
light 2: EIVLTQSPGTLSLSPGERATFSCRSSHSIRSRRVAWYQHKPGQAPRLVIHGVSNRASGISDRFSGSGSGTDFTLTITRVEPEDFALYYCQVYGASSYTFGQGTKLERKRTVAAPSVFIFPPSDEQLKSGTASVVCLLNNFYPREAKVQWKVDNALQSGNSQESVTEQDSKDSTYSLSSTLTLSKADYEKHKVYACEVTHQGLSSPVTKSFNRGEC
notes: also called antibody 016
**Q.** Does B1 bind?
**A.** Result: binds
